{"source": "patent US20190264194A1", "about": "(published 2019)", "key": {"streptavidin [1]": {"target": "T1, streptavidin (UniProt P22629 37-163, limits assumed)", "T1 construct": "Used as phycoerythrin conjugate or on coated beads; also called SA; streptavidin-phycoerythrin", "test": "whole-cell dissociation by flow cytometry with biotin as competitor", "procedure": "(§1) To enable comparison of the phage and bacterial display peptides, a bacterial display clone was constructed with the insertion, […] (SEQ ID NO:65), and the KD and kdiss were measured in whole cell assays.\n(§2) To obtain equilibrium binding curves, cells were labeled over a range of concentrations, e.g., about 0.1 to about 200 nM, of fluorescently conjugated target proteins (streptavidin-phycoerythrin or CRP-Alexa Fluor® 488) and analyzed by flow cytometry, as above. The corresponding mean fluorescence versus concentration data were fit to a monovalent binding isotherm to obtain the apparent KD. Dissociation rates of streptavidin-binding clones were measured in the presence of about 1 to about 2 μM biotin. Cells were labeled with 50 nM streptavidin-phycoerythrin for 30 minutes at room temperature. The cells were then pelleted, resuspended in PBS with biotin, and immediately analyzed by flow cytometry. Fluorescence data were collected continuously for about five minutes. The dissociation rate constants were then determined as described previously. See Daugherty, P. S., et al. (1998) Protein Eng. 11(9):825-832, which is herein incorporated by reference."}, "streptavidin [2]": {"target": "T1, streptavidin", "test": "equilibrium dissociation constant of a selected displayed peptide, whole-cell flow cytometry", "procedure": "as §2"}, "streptavidin [3]": {"target": "T1, streptavidin", "test": "whole-cell dissociation by flow cytometry, 1-2 uM biotin as competitor", "procedure": "The apparent binding affinities of a subset of the selected peptides were determined using flow cytometric analysis. […] See Daugherty, P. S., et al. (1998) Protein Eng. 11(9):825-832, which is herein incorporated by reference. […] See Daugherty, P. S., et al. (1998) Protein Eng. 11(9):825-832; and Feldhaus, M. J., et al. (2003) Nat. Biotechnol. 21(2): 163-170, which are herein incorporated by reference. […] Apparent dissociation rate constants (kdiss) were determined for streptavidin, using about 1 to about 2 μM biotin as a competitor to prevent re-binding.\nas §2"}, "streptavidin [4]": {"target": "T1, streptavidin", "test": "apparent whole-cell KD, flow cytometry with streptavidin-phycoerythrin", "procedure": "as §2"}, "streptavidin [5]": {"target": "T1, streptavidin", "test": "apparent whole-cell KD, flow cytometry with streptavidin-phycoerythrin", "procedure": "as §1, §2", "remark": "listed apart in the source"}, "streptavidin [6]": {"target": "T1, streptavidin", "test": "selection from the E. coli OmpA display library"}, "streptavidin [7]": {"target": "T1, streptavidin", "test": "whole-cell dissociation by flow cytometry (FIG. 10B), SA-7 against SA-1", "procedure": "as §2"}}, "note": "Positions of bridges follow the written chain, without caps; N, C: chain ends. No end group written: not given here."}
{"binder": "TVLICMNICWTGETQ (Insert only)", "note": "[SA-3]", "values": [{"measurement": "koff", "setting": "streptavidin [1]", "result": 0.0007, "unit": "s⁻¹"}, {"measurement": "Kd", "setting": "streptavidin [2]", "result": 4, "unit": "nM"}, {"measurement": "koff", "setting": "streptavidin [3]", "result": "~0.001", "unit": "s⁻¹"}, {"measurement": "Kd", "setting": "streptavidin [4]", "result": 4, "unit": "nM"}]}
{"binder": "SAECHPQGPPCIEGR (disulfide 4-11 (inferred), Insert only; also called cyclic HPQ clone)", "note": "[Clone HPQ]", "values": [{"measurement": "fold faster dissociation rate (kdiss) against clone SA-1", "setting": "streptavidin [1]", "result": 20, "unit": "fold"}, {"measurement": "fold higher apparent KD against clone SA-1", "setting": "streptavidin [5]", "result": 5, "unit": "fold"}]}
{"binder": "QVKLHPMAPVVPSHW", "note": "[SEQ ID NO 243]", "values": [{"measurement": "binding result", "setting": "streptavidin [6]", "result": "binds"}]}
{"binder": "NEWYCQNVCERMPHS (Insert only)", "note": "[SA-7]", "values": [{"measurement": "fold difference of dissociation rate constant against SA-1", "setting": "streptavidin [7]", "result": 4, "unit": "fold"}, {"measurement": "koff", "setting": "streptavidin [3]", "result": "~0.01", "unit": "s⁻¹"}]}
